# Laboratory results reported in US20150299281A1 (ZEALAND PHARMA A S, published 2015).
# Numbered stars: 1 amine (or outer) side, 2 acyl side, 3 side chain; on linkers, the order of the positions; unused ones are H or OH. Square brackets hold non-standard residues; d marks the D form. Side chains are listed from the residue outwards. * marks the point of attachment. C16 diacid = O=C(O)CCCCCCCCCCCCCCC(=O)*; γGlu = O=C(O)[C@H](CCC(=O)[*:2])N[*:1]; 1Nal = N[C@@H](Cc1cccc2ccccc12)C(=O)O; Aib = CC(C)(N)C(=O)O
# B1: Compound 27 (peptide)
# peptide: H-Y[Aib]EGTFTSDYSIYLDKKAEKAFVNWLLA[Aib]K-NH2
# SMILES: CC[C@H](C)[C@H](NC(=O)[C@H](CO)NC(=O)[C@H](Cc1ccc(O)cc1)NC(=O)[C@H](CC(=O)O)NC(=O)[C@H](CO)NC(=O)[C@@H](NC(=O)[C@H](Cc1ccccc1)NC(=O)[C@@H](NC(=O)CNC(=O)[C@H](CCC(=O)O)NC(=O)C(C)(C)NC(=O)[C@@H](N)Cc1ccc(O)cc1)[C@@H](C)O)[C@@H](C)O)C(=O)N[C@@H](Cc1ccc(O)cc1)C(=O)N[C@@H](CC(C)C)C(=O)N[C@@H](CC(=O)O)C(=O)N[C@@H](CCCCN)C(=O)N[C@@H](CCCCN)C(=O)N[C@@H](C)C(=O)N[C@@H](CCC(=O)O)C(=O)N[C@@H](CCCCN)C(=O)N[C@@H](C)C(=O)N[C@@H](Cc1ccccc1)C(=O)N[C@H](C(=O)N[C@@H](CC(N)=O)C(=O)N[C@@H](Cc1c[nH]c2ccccc12)C(=O)N[C@@H](CC(C)C)C(=O)N[C@@H](CC(C)C)C(=O)N[C@@H](C)C(=O)NC(C)(C)C(=O)N[C@@H](CCCCN)C(N)=O)C(C)C
# B2: Compound 3 (peptide)
# peptide: H-Y[Aib]EGTFTSDYSIALDKIAQRAFVNWLVA[Aib]K-NH2
# SMILES: CC[C@H](C)[C@H](NC(=O)[C@H](CCCCN)NC(=O)[C@H](CC(=O)O)NC(=O)[C@H](CC(C)C)NC(=O)[C@H](C)NC(=O)[C@@H](NC(=O)[C@H](CO)NC(=O)[C@H](Cc1ccc(O)cc1)NC(=O)[C@H](CC(=O)O)NC(=O)[C@H](CO)NC(=O)[C@@H](NC(=O)[C@H](Cc1ccccc1)NC(=O)[C@@H](NC(=O)CNC(=O)[C@H](CCC(=O)O)NC(=O)C(C)(C)NC(=O)[C@@H](N)Cc1ccc(O)cc1)[C@@H](C)O)[C@@H](C)O)[C@@H](C)CC)C(=O)N[C@@H](C)C(=O)N[C@@H](CCC(N)=O)C(=O)N[C@@H](CCCNC(=N)N)C(=O)N[C@@H](C)C(=O)N[C@@H](Cc1ccccc1)C(=O)N[C@H](C(=O)N[C@@H](CC(N)=O)C(=O)N[C@@H](Cc1c[nH]c2ccccc12)C(=O)N[C@@H](CC(C)C)C(=O)N[C@H](C(=O)N[C@@H](C)C(=O)NC(C)(C)C(=O)N[C@@H](CCCCN)C(N)=O)C(C)C)C(C)C
# B3: Compound 24 (peptide)
# peptide: H-Y[Aib]EGTFTSDYSIYLDKKAQRAFVNWLL[Aib]K-NH2
# SMILES: CC[C@H](C)[C@H](NC(=O)[C@H](CO)NC(=O)[C@H](Cc1ccc(O)cc1)NC(=O)[C@H](CC(=O)O)NC(=O)[C@H](CO)NC(=O)[C@@H](NC(=O)[C@H](Cc1ccccc1)NC(=O)[C@@H](NC(=O)CNC(=O)[C@H](CCC(=O)O)NC(=O)C(C)(C)NC(=O)[C@@H](N)Cc1ccc(O)cc1)[C@@H](C)O)[C@@H](C)O)C(=O)N[C@@H](Cc1ccc(O)cc1)C(=O)N[C@@H](CC(C)C)C(=O)N[C@@H](CC(=O)O)C(=O)N[C@@H](CCCCN)C(=O)N[C@@H](CCCCN)C(=O)N[C@@H](C)C(=O)N[C@@H](CCC(N)=O)C(=O)N[C@@H](CCCNC(=N)N)C(=O)N[C@@H](C)C(=O)N[C@@H](Cc1ccccc1)C(=O)N[C@H](C(=O)N[C@@H](CC(N)=O)C(=O)N[C@@H](Cc1c[nH]c2ccccc12)C(=O)N[C@@H](CC(C)C)C(=O)N[C@@H](CC(C)C)C(=O)NC(C)(C)C(=O)N[C@@H](CCCCN)C(N)=O)C(C)C
# B4: Compound 26 (peptide)
# peptide: H-Y[Aib]EGTFTSDYSIYLDKKAQRAFVNWLLAYG[1Nal]LDF-NH2
# SMILES: CC[C@H](C)[C@H](NC(=O)[C@H](CO)NC(=O)[C@H](Cc1ccc(O)cc1)NC(=O)[C@H](CC(=O)O)NC(=O)[C@H](CO)NC(=O)[C@@H](NC(=O)[C@H](Cc1ccccc1)NC(=O)[C@@H](NC(=O)CNC(=O)[C@H](CCC(=O)O)NC(=O)C(C)(C)NC(=O)[C@@H](N)Cc1ccc(O)cc1)[C@@H](C)O)[C@@H](C)O)C(=O)N[C@@H](Cc1ccc(O)cc1)C(=O)N[C@@H](CC(C)C)C(=O)N[C@@H](CC(=O)O)C(=O)N[C@@H](CCCCN)C(=O)N[C@@H](CCCCN)C(=O)N[C@@H](C)C(=O)N[C@@H](CCC(N)=O)C(=O)N[C@@H](CCCNC(=N)N)C(=O)N[C@@H](C)C(=O)N[C@@H](Cc1ccccc1)C(=O)N[C@H](C(=O)N[C@@H](CC(N)=O)C(=O)N[C@@H](Cc1c[nH]c2ccccc12)C(=O)N[C@@H](CC(C)C)C(=O)N[C@@H](CC(C)C)C(=O)N[C@@H](C)C(=O)N[C@@H](Cc1ccc(O)cc1)C(=O)NCC(=O)N[C@@H](Cc1cccc2ccccc12)C(=O)N[C@@H](CC(C)C)C(=O)N[C@@H](CC(=O)O)C(=O)N[C@@H](Cc1ccccc1)C(N)=O)C(C)C
# B5: Compound 25 (peptide)
# peptide: H-Y[Aib]EGTFTSDYSIYLDKKAQRAFVNWLLA[Aib]KYG[1Nal]LDF-NH2
# SMILES: CC[C@H](C)[C@H](NC(=O)[C@H](CO)NC(=O)[C@H](Cc1ccc(O)cc1)NC(=O)[C@H](CC(=O)O)NC(=O)[C@H](CO)NC(=O)[C@@H](NC(=O)[C@H](Cc1ccccc1)NC(=O)[C@@H](NC(=O)CNC(=O)[C@H](CCC(=O)O)NC(=O)C(C)(C)NC(=O)[C@@H](N)Cc1ccc(O)cc1)[C@@H](C)O)[C@@H](C)O)C(=O)N[C@@H](Cc1ccc(O)cc1)C(=O)N[C@@H](CC(C)C)C(=O)N[C@@H](CC(=O)O)C(=O)N[C@@H](CCCCN)C(=O)N[C@@H](CCCCN)C(=O)N[C@@H](C)C(=O)N[C@@H](CCC(N)=O)C(=O)N[C@@H](CCCNC(=N)N)C(=O)N[C@@H](C)C(=O)N[C@@H](Cc1ccccc1)C(=O)N[C@H](C(=O)N[C@@H](CC(N)=O)C(=O)N[C@@H](Cc1c[nH]c2ccccc12)C(=O)N[C@@H](CC(C)C)C(=O)N[C@@H](CC(C)C)C(=O)N[C@@H](C)C(=O)NC(C)(C)C(=O)N[C@@H](CCCCN)C(=O)N[C@@H](Cc1ccc(O)cc1)C(=O)NCC(=O)N[C@@H](Cc1cccc2ccccc12)C(=O)N[C@@H](CC(C)C)C(=O)N[C@@H](CC(=O)O)C(=O)N[C@@H](Cc1ccccc1)C(N)=O)C(C)C
# B6: Compound 23 (peptide)
# peptide: H-Y[Aib]EGTFTSDYSIYLDKKAQRAFVNWLKA[Aib]K-NH2
# SMILES: CC[C@H](C)[C@H](NC(=O)[C@H](CO)NC(=O)[C@H](Cc1ccc(O)cc1)NC(=O)[C@H](CC(=O)O)NC(=O)[C@H](CO)NC(=O)[C@@H](NC(=O)[C@H](Cc1ccccc1)NC(=O)[C@@H](NC(=O)CNC(=O)[C@H](CCC(=O)O)NC(=O)C(C)(C)NC(=O)[C@@H](N)Cc1ccc(O)cc1)[C@@H](C)O)[C@@H](C)O)C(=O)N[C@@H](Cc1ccc(O)cc1)C(=O)N[C@@H](CC(C)C)C(=O)N[C@@H](CC(=O)O)C(=O)N[C@@H](CCCCN)C(=O)N[C@@H](CCCCN)C(=O)N[C@@H](C)C(=O)N[C@@H](CCC(N)=O)C(=O)N[C@@H](CCCNC(=N)N)C(=O)N[C@@H](C)C(=O)N[C@@H](Cc1ccccc1)C(=O)N[C@H](C(=O)N[C@@H](CC(N)=O)C(=O)N[C@@H](Cc1c[nH]c2ccccc12)C(=O)N[C@@H](CC(C)C)C(=O)N[C@@H](CCCCN)C(=O)N[C@@H](C)C(=O)NC(C)(C)C(=O)N[C@@H](CCCCN)C(N)=O)C(C)C
# B7: Compound 31 (peptide)
# peptide: H-Y[Aib]EGTFTSDYSIYLDKK([γGlu-C16 diacid])AQRAFVNWLLA[Aib]K-NH2
# SMILES: CC[C@H](C)[C@H](NC(=O)[C@H](CO)NC(=O)[C@H](Cc1ccc(O)cc1)NC(=O)[C@H](CC(=O)O)NC(=O)[C@H](CO)NC(=O)[C@@H](NC(=O)[C@H](Cc1ccccc1)NC(=O)[C@@H](NC(=O)CNC(=O)[C@H](CCC(=O)O)NC(=O)C(C)(C)NC(=O)[C@@H](N)Cc1ccc(O)cc1)[C@@H](C)O)[C@@H](C)O)C(=O)N[C@@H](Cc1ccc(O)cc1)C(=O)N[C@@H](CC(C)C)C(=O)N[C@@H](CC(=O)O)C(=O)N[C@@H](CCCCN)C(=O)N[C@@H](CCCCNC(=O)CC[C@H](NC(=O)CCCCCCCCCCCCCCC(=O)O)C(=O)O)C(=O)N[C@@H](C)C(=O)N[C@@H](CCC(N)=O)C(=O)N[C@@H](CCCNC(=N)N)C(=O)N[C@@H](C)C(=O)N[C@@H](Cc1ccccc1)C(=O)N[C@H](C(=O)N[C@@H](CC(N)=O)C(=O)N[C@@H](Cc1c[nH]c2ccccc12)C(=O)N[C@@H](CC(C)C)C(=O)N[C@@H](CC(C)C)C(=O)N[C@@H](C)C(=O)NC(C)(C)C(=O)N[C@@H](CCCCN)C(N)=O)C(C)C
# Assays:
# human GLP-1 receptor = human GLP-1 receptor (human, UniProt P43220 24-463); experiment: cell-based or functional assay
# human GIP receptor = target: T1, human GIP receptor (human, UniProt P48546 22-466); experiment: cell-based or functional assay
# T1 sequence (looked up): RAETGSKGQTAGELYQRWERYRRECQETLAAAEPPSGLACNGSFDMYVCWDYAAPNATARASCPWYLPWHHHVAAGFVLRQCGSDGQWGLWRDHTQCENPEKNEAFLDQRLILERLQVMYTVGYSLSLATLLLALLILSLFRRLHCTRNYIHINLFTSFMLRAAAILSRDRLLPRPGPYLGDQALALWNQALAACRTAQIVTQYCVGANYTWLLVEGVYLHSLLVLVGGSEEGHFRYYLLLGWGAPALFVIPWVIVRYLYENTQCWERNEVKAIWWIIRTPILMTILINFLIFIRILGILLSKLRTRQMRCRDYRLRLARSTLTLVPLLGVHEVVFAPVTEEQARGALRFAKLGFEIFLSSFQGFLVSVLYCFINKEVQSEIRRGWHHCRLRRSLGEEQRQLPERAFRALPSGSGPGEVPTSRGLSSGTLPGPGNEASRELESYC
Binder,"EC50, cAMP induction in HEK293 cells expressing human GLP-1 R (human GLP-1 receptor) [nM]","EC50, cAMP induction in HEK293 cells expressing human GIP R (human GIP receptor) [nM]"
B1,0.074,0.3
B2,0.022,0.015
B3,0.0085,0.096
B4,0.39,0.8
B5,0.041,0.12
B6,0.012,0.42
B7,0.02,0.022
